According to patent publication US20090005298A1 (published 2009):

B1: Rat recombinant BSP (rBSP) (other)
chain: FSMKNFHRRIKAEDSEENGVFKYRPRYFLYKHATYFYPPLKRFPVQGGSDSSEENGDGDSSEEEGEEEETSNEEENNEDSEGNEDQEAEAENATLSGVTASYGVETTADAGKLELAALQLPKKAGDAEGKAPKMKESDEEEEEEEEEENENEEAEVDENEQVVNGTSTNSTEVDGGNGPSGGDNGEEAEEASVTEAGAEGTTAGVRELTSYGTTTAVLLNGFQQTTPPPEAYGTTSPPARKSSTVEYGEEYEQIGNEYNTAYETYDENNGEPRGDTYRAYEDEYSYYKGHGYEGYEGQDYYYHQ
modifications: biotinylated with Sulfo-NHS-Biotin where used as the labelled protein in competition assays

Key:
[1] = biological target: T1, Rat tail tendon type I collagen (rat, UniProt P02454 152-1207; P02466 86-1125); assay: solid-phase collagen-binding assay, anti-His detection, one-site binding model
T1 sequence (P02454 152-1207 limits assumed, chain 1 of 2): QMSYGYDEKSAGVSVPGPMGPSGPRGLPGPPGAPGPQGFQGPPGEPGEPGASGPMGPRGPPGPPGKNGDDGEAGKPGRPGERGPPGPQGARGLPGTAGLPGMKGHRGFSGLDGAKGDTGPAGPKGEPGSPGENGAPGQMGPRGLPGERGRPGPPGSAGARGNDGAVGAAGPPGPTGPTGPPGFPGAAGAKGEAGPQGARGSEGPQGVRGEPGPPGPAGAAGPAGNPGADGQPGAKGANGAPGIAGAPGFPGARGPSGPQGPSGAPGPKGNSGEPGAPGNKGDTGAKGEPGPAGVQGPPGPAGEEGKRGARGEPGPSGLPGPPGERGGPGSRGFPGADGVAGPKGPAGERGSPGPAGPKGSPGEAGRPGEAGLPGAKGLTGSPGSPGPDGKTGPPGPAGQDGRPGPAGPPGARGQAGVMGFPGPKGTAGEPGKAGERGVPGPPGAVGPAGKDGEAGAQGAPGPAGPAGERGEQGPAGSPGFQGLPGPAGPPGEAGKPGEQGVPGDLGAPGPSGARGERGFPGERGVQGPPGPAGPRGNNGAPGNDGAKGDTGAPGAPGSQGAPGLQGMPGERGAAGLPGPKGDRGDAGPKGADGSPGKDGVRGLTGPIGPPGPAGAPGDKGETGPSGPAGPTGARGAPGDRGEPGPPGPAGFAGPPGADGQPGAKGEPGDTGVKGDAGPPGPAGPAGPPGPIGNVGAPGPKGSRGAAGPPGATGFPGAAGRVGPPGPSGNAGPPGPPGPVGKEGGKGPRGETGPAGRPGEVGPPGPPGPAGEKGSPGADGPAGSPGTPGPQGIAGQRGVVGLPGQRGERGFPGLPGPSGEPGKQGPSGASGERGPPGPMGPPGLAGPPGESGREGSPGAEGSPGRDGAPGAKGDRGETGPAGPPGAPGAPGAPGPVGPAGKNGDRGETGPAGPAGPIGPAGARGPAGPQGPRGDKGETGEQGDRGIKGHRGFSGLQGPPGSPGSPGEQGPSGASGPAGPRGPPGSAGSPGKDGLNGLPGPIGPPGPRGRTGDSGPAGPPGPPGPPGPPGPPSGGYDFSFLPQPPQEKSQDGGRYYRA
T1 sequence (P02466 86-1125 limits assumed, chain 2 of 2): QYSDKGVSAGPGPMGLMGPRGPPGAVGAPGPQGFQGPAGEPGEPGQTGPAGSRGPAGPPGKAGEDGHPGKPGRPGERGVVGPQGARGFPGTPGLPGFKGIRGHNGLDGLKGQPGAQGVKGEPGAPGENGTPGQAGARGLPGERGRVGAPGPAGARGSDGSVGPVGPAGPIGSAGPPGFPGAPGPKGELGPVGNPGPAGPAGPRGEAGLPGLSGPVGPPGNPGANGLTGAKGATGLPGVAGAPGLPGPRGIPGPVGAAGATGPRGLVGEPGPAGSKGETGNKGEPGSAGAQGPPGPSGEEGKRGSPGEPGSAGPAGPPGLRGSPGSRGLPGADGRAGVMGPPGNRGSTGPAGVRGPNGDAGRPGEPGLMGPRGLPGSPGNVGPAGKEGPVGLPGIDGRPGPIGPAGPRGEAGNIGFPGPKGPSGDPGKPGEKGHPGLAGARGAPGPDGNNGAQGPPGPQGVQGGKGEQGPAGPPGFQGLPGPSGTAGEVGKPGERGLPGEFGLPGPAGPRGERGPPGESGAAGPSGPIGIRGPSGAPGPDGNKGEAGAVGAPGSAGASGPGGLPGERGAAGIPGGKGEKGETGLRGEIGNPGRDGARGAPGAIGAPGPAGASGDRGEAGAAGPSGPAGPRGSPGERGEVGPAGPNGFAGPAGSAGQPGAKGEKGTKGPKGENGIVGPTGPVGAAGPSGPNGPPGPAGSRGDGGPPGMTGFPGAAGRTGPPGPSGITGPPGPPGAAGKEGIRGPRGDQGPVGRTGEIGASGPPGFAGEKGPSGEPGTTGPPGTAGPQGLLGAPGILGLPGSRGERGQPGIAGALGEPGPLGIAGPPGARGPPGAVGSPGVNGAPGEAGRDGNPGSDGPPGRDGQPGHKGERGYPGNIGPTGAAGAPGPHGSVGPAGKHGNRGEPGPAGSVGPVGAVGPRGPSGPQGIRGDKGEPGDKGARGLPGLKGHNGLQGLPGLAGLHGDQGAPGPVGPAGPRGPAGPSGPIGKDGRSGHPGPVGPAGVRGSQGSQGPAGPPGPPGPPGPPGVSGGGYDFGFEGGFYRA

[2] = biological target: T1, Rat tail tendon type I collagen; assay: cell-based or functional assay

Row | Kd [1] | nucleating activity of rBSP in a collagen scaffold (hydroxyapatite nucleation) [2] | Molecule
1 | 4.04 nM | – | rBSP(1-75) (from UniProt P13839 1-75) (peptide)
2 | 50.3 nM | – | rBSP(19-100) (from UniProt P13839 19-100) (peptide)
3 | 5.64 nM | – | rBSP(1-100) (from UniProt P13839 1-100) (peptide)
4 | 22.9 nM | 0.025 nmol | B1
